Source: patent US20250155441A1

Assays:
[1] = target: α-fetoprotein (AFP-L1), the non-fucosylated variant of AFP that should not react with Lens culinaris agglutinin A (human) (UniProt P02771); assay: Elecsys ECL immunoassay, biotinylated protein 7 nM without pretreatment, antibody 1 µg/mL, ruthenylated anti-rabbit Fc, streptavidin beads (PBS blank 570)
[2] = target: α-fetoprotein (AFP-L1), the non-fucosylated variant of AFP that should not react with Lens culinaris agglutinin A (human) (UniProt P02771); assay: Elecsys ECL immunoassay, biotinylated protein 7 nM without pretreatment, antibody 1 µg/mL, ruthenylated anti-rabbit Fc, streptavidin beads (PBS blank 580)

Sequence of α-fetoprotein (AFP-L1), the non-fucosylated variant of AFP that should not react with Lens culinaris agglutinin A (human) (P02771 19-609 limits assumed, change not shown): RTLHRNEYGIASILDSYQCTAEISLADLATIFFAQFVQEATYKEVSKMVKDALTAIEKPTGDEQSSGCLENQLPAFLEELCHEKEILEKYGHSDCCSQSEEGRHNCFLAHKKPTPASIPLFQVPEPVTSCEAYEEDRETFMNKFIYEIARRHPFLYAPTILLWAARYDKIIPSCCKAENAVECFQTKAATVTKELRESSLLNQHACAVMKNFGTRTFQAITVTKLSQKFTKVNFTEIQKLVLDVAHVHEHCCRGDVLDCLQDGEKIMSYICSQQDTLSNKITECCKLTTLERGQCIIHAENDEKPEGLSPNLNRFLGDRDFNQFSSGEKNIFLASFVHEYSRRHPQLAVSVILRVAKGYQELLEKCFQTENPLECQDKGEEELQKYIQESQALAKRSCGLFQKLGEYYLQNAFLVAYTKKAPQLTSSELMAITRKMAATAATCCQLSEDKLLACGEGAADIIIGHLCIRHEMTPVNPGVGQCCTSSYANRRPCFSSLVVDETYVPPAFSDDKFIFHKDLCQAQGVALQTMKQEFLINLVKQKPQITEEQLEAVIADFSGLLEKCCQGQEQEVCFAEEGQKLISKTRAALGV

Binder	Counts [1] [counts]	Counts [2] [counts]
mAb<AFP-L3>rRb-3C5-IgG (antibody, V domains shown) VH: QSVEESGGRLVAPGTPLTLTCTVSGIDLSTYGMGWVRQAPGKGLEYIGIIDSGSTYYANWAKGRFTISKTSTTVDLKMTSLTTEDTATYFCARDRDPSSSGYYFKMWGPGTLVTVSL VL: ALVMTQTPSSVSAAVGGTVTINCQASQSIGSYLAWYQQKPGQPPRLLIYGASNLESGVPSRFKGSGSGTEFTLTISDLECDDAATYYCQTAFYIFSSDNAFGGGTEVVVK	724	–
mAb<AFP-L3>rRb-19B12-IgG (antibody, V domains shown) VH: QSVEESGGRLVAPGTPLTLTCTVSGIDLSTYGMGWVRQAPGKGLEWIGIIGDNGSTYYANWAKGRFTISKTSTTVDLKMTSLTTEDTATYFCARDRDPSSSGYYFKMWGPGTLVTVSL VL: ALVMTQTPSSVSAAVGGTVTINCQASQSISSYLAWYQQKPGQPPKLLIFGASNLESGVPSRFKGSGSGTEFTLTISDLECDDAATYYCQTAFYIFSSDNAFGGGTEVVVK	–	771
